In publication PMC10052374, “Jasmonate activates a CsMPK6-CsMYC2 module that regulates the expression of β-citraurin biosynthetic genes and fruit coloration in orange (Citrus sinensis)”:

B1: CsCCD4b-probe (dsDNA)
DNA 1: GTACCATACAACTGTGGCACCATAGCTGGATC
DNA 2: GATCCAGCTATGGTGCCACAGTTGTATGGTAC
B2: CsPSY-probe (dsDNA)
DNA 1: AAAACTTCAATTGATACTCTTCCACTAATTCT
DNA 2: AGAATTAGTGGAAGAGTATCAATTGAAGTTTT
B3: CsLCYb-probe (dsDNA)
DNA 1: CGACAGTTGGACCACTAGCTTCGTGACCGTTGT
DNA 2: ACAACGGTCACGAAGCTAGTGGTCCAACTGTCG
B4: CsMPK6-probe (dsDNA)
DNA 1: AGCTCTATGTAACAACTGGGATCTATTTGAAA
DNA 2: TTTCAAATAGATCCCAGTTGTTACATAGAGCT
B5: CsBCH-probe (dsDNA)
DNA 1: AATTTCGAATCTAACAAATGTTTCGTTGATAT
DNA 2: ATATCAACGAAACATTTGTTAGATTCGAAATT

Experiments:
[1] = target: CsMYC2-His (Citrus sinensis (Newhall orange), UniProt V4SX11 1-519); test: BLI; BLI: PBS, 100 nM biotin probe on SA sensors, CsMYC2-His 62.5-1000 nM, 1:1 fit. DNA pull-down: probe bound to beads in 10 mM Tris-HCl pH 7.5, 1 mM EDTA, 1 M NaCl, 0.1% Tween-20 at RT, then protein 1 h on ice. EMSA: as in Yue et al. 2019, buffer not given; conditions: protein: recombinant; tags: His (pET30A); chain copies: 2; label: 3' biotin
Sequence of CsMYC2-His (V4SX11 entry or part of it): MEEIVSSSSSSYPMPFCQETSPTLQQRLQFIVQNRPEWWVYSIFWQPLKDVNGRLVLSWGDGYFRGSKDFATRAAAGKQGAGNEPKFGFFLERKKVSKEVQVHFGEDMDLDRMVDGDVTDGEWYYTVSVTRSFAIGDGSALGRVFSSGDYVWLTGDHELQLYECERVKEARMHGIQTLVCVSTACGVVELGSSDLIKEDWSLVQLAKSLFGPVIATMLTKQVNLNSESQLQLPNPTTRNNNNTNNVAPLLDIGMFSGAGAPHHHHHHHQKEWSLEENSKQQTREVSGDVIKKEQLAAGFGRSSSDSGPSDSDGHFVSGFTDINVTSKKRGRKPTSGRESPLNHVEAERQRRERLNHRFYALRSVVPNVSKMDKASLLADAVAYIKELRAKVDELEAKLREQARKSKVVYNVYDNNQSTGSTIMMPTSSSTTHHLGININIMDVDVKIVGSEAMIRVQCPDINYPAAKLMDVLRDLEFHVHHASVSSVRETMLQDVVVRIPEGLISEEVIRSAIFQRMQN

[2] = target: CsMYC2-MBP (Citrus sinensis (Newhall orange), UniProt V4SX11 1-519); test: EMSA; BLI: PBS, 100 nM biotin probe on SA sensors, CsMYC2-His 62.5-1000 nM, 1:1 fit. DNA pull-down: probe bound to beads in 10 mM Tris-HCl pH 7.5, 1 mM EDTA, 1 M NaCl, 0.1% Tween-20 at RT, then protein 1 h on ice. EMSA: as in Yue et al. 2019, buffer not given; conditions: protein: recombinant; tags: MBP (pMAL-C2X); chain copies: 2; label: 3' biotin
Sequence of CsMYC2-MBP (V4SX11 entry or part of it): as above

| Binder | Kd [1] [µM] | binding result [2] |
| --- | --- | --- |
| B1 | 0.058 |  |
| B2 |  | binds |
| B3 |  | binds |
| B4 |  | binds |
| B5 |  | binds |
